The DeepSol protein solubility set

Test: soluble on expression in E. coli; label from the status in PepcDB or PDB records

Soluble on expression in E. coli, not soluble:
MRRGLAWVGALLLLGGCVSSRPIDEIQIIQQMGYDFENGRYTGTAVYPTFKQGPMTKPNMLTTTSPTIYDLIPRLSSKSALPIEEGQLRLILFGKEFARRGVTQITHSLARNNKVGSHLLLGVAEESAKELLKITAKTTLSDTLYLPNLVEQNEQSMNLPKTNLHLFLYRYFSPGSDPFLPYFEKKGDFVKLEGVALFRDDQYVGHVSLRDSFLMKILLGETKNGVYQLKVGNRGKQGEDRVMLQNLWAKPKYAWKRDGSRHVLDVFIHIHASVRDYPSWLDQPGGDLFADVKKKMQNELEHNMRRLFRYFQKKRIDPLGIGDFVRSVTRHWDSDAFYREYPDLDIRPHVTVDIVHTGIGE
MPRRPGTPRGPQGGRRLLVISASMGAGHDTVAAELVRRARERGDTAQTVDVLALLPYGLGAVLRCFYRGSVRHFPWAYAALYRLFLRPGAGRRPSGTPLARLAGDRLRELAARTGADVVVPVFHLGAQLTGHLRDRGLLPVPSVVLVIDFELHRQWLHPGNDHCLCLTEEAAREARGNTGTPAETCGPVVAPEFSAGRVPGAAQWRETFDRLGPGRPAVVLSAGAWGVGSHLDATVRLLVDHGYLPVVLCGDNQRLRRTLSGTPGVLALGWVTDMPGLLHAARALIDNAAGQTAVQALAAGLPVVGHRPIPGHGADGVRRMAALGVSEVAEDRTALLEALARLTAPGPDRRRRIAAGRALFTGNADALTLVTDLADAARADVRRLEHHHHHH
MQKSDEVTEKFKRYCNQLEKYGQTENVHSPVMAMLRRKGRKQLIEIMKRDGDCTSSINKLWIVGYYHPFQFFIRDKEKNMAIAVLLTMFCGELQEMLSLPDDKYPALWNMYIGDFHRYMPDEEIQKCLAVGYYSRAIDLDPNQGRAFHVLAGLRADLNVAQKLRLMILGQLADAPYKKGTELLEYLKFPQKESTDKLMVDFVIWALNEKSKRMDYQMTGIKIVNEFKAEIEQKLEFDWSLIMSTCRLASKLAMKKFGFQQFYNCFDTISTLYITIYSRTISSKCLLAEAISWISDSAEILGHLDEQKNEPHFQKLSVFAKTKWNELNDLVMNHINSVFTSMSLTINPSISMTSFLLNGPISEPNVEFLSQLINYLVSVEFPPMEIIHDREESGPLLRRINQSEQKRLDIQIKTQNDEVNREDWRPVYVLMDYDVIVDKIRIALKIWDIDDFICILPSTVLDELDYQKTKNRAVRPVIRALMELQAEGKIVLKKCDNERSCAEQLVQSARRSAEDHKHIVAFLCKNPSEQKEMEGVTFYDIDQFYMKYLE
MSTRLTTLSHTSEGHRVSVHYGYDDKGRLTGERQTVENPETGELLWHHETGHAYNEQGLANRVTPDSLPPVEWLTYGSGYLAGMKLGGTPLLEFTRDRLHRETVRSFGSMAGSNAAYKLTSTYTPAGQLQSQHLNSLVYDRDYGWNDNGDLVRISGPRQTREYGYSATGRLESVRTLAPDLDIRIPYATDPAGNRLPDPELHPDSTLTVWPDNRIAEDAHYVYRHDEYGRLTEKTDRIPAGVIRTDDERTHHYHYDSQHRLVFYTRIQHGEPLVESRYLYDPLGRRMAKRVWRRERDLTGWMSLSRKPEVTWYGWDGDRLTTVQTDTTRIQTVYEPGSFTPLIRVETENGEREKAQRRSLAETLQQEGSENGHGVVFPAELVRLLDRLEEEIRADRVSSESRAWLAQCGLTVEQLARQVEPEYTPARKVHFYHCDHRGLPLALISEDGNTAWRGEYDEWGNQLNEENPHHLHQPYRLPGQQHDEESGLYYNRHRHYDPLQGRYITPDPIGLRGGWNMYQYPLNPIQVIDPMGLDAIENMTSGGLIYAVSGVPGLIAANSITNSAYQFGYDMDAIVGGAHNGAADAMRHCYLMCRMTKTFGSTIADVIGKNHEAAGDRQGQPAKERIMDLKNNTVGIACGDFSAKCSDACIEKYNTGQLFGLDGIKADNPIKAKQGSSDASNYLEHHHHHH
MKKVLIVLLVLLTSFGFSENLDKYESKRVFDKSIQFILDGNYEKLKNDTEMSRVAGNITDAAEAIFAKARPMLKEHKYKVIDVKEKKDISELTVKVEYKVYENVSQEESENFMIKFQEELDEETEEAADIYDKKVQKLLQDNIKSKGIIKDKIIKVYMDKEYGYWDLATDKNEDLLLTLFSVIDSLGLY
MGSDKIHHHHHHMKITKVECIPVSMPLKKPLRLPNVTITKLDTLLLRLHTETGLVGIAESGDTSSWYRGESQASMVSMICDIFAPRILLGEDPCNIEKIVGAMDTLARDNNQAKGLVDCALHDLKGKVLNVPVYQLLGGRTRESAPLGWVLSAGEPDKVAEAALSAREAGFVAFKLKVGRGTFDNDVATAAAVRKALGDSARICLDANGSWNYEQALRTIRRLDAYRLDFVEQPLPHWDIEGMARLRQRIDTPVYADEAAQELHHLKEIAERRAADGVILKVQKVGGLLKAQRFLAVAQMFDLPVMCSTLIGSGVEACPTAHLWVANQWACQFISESTGPLAVHGVWNSEDIPQGADLALQGARFHRGHVSPGDGPGLGVELNEALLGQIRTEGRPARVVNL
MGHHHHHHSHGESEDVTQFLQSHKKTLTNEKLFLMDGKRTWFLEMESTPGEDAMNTVKMTTKDLKYDRSLIDKAGFERTDSNFERSHTVGKMLSNSIMCYRDIFYERESQLMQQTSLLSYEIAIATPTFSNYYPDWSAPINIVARPSTSKKIMTC

Soluble on expression in E. coli, soluble:
MSYPMTPVKRPTISHGIQASDGIIKRPIEGNKKRLSAPIKDKPEHRIAPEEITNAPTTSRLRRAPEFDVVVIMKTTKKDRKKIIQTPRRRSIKLANVPMTPKTAPIRRHSTGGNAAMSTPKRRKSFGSLAPVRQHRVETRKVVRNLMAVRPPLCF
MTMHREPGGERYYYTWAWFEGPDDAAWRVTGHHTDSGEQYRLDWNLAERSLCVTDSLGRTRCHWWDAQGLVTAYRDEAGQMTTFRWSDEERLLLGMTDAQGGKWRYVYDRLGHLTETHDPLGRVEQTQWHPVWHQPETEVDAAGAAWRYEYDERGNLQAVSDPLHQRTVYGYDRHGQVVRITDARGGDKYLQWNEDGQLMRHTDCSGSQTAWFYDERTRLERVTDAESNSTRYSYDGNGHLTEVMFADGRTERYQPDAAGRLVKYTSPAGQITRWQRDGQGRVRRQTDATGRRTAYEYDAYGRLTTLTNENGESYRFRYDVLDRLTEQTDPGGSRRAYGYNALNAVTAVIYGGERGGEIRHGLERDAAGRLTAKTTPETRTEYRYDAADRLLEIRRRRHDAAEGGEPEVIRFSYDSAGNLLSEETAQGVLQHRYDVQGNRTETQMPDGRTLRYLYYGSGHLQQINLGRDVISEFTRDHLHREVQRSQGRLDTRRMYDRTGRLTRKPTCKGMRGVVPETFIDREYAYSGQDELLKKRHSRQGVTDYFYDTTGRITACRNEAYLDSWQYDAAANLLDRRQGETAQAGAGSVVPFNRITSYRGLHYRYDEYGRVVEKRGRNGTQHYRWDAEHRLTEVAVIRGSTVRRYGYVYDAPGRRVEKHELDAEGKPYNRTTFLWDGMRLAQECRLGRSSSLYIYSDQGSHEPLARVDRAAPGEADEVLYYHTDVNGAPEEMTDGRGNIVWEAGYQVWGNLTHEKETRPVQQNLRFQGQYLDRETGLHYNLYRFYDPDIGKFISGDPISIRGGINLYQYAPNPIKWIDPLGLYNGEGQRELGKYHVFHEHNLDITEYGLSDAEHFSRGNQAIYERMKNDPAFRREMQTKYPGVVEHVQPSSGGKFSTESPPGLTWHHENKPGVLSLVDRLDHKTYHKIYHPLEHHHHHH
AIGEFMVSLPRMVYPQPKVLTPCRKDVLVVTPWLAPIVWEGTFNIDILNEQFRLQNTTIGLTVFAIKKYVAFLKLFLETAEKHFMVGHRVHYYVFTDQPAAVPRVTLGTGRQLSVLEVRAYKRWQDVSMRRMEMISDFCERRFLSEVDYLVCVDVDMEFRDHVGVEILTPLFGTLHPGFYGSSREAFTYERRPQSQAYIPKDEGDFYYLGGFFGGSVQEVQRLTRACHQAMMVDQANGIEAVWHDESHLNKYLLRHKPTKVLSPEYLWDQQLLGWPAVLRKLRFTAVPKNHQAVRNP
MANLPSSSGMFSRLLANVFNTTVASRCSASGRWWPQPEYELSKHRSRAPSMGIHRRTRLNVVDNSALGKEADTTGKLPYCIHVYKQGRRAKHMPHAELGDKILVAIRGQMRKAYVVGANTHVHYRKHGVPVTDQNMIVLLDEEGNPLGNRITAPIPTKLMANRGNVQFSKVLALANKFI
